Reference: patent US20250025552A1 (published 2025)

Target: the molecule itself
Test: gel filtration (Superdex 200) of His-caspase 11 after incubation with oxPAPC; self-association
Method: To measure the ability of oxPAPC to oligomerize caspase-11, monomer or oligomer fractions of His-caspase 11 were incubated with oxPAPC for 2 hours on ice, and then analyzed with Superdex 200 (10/300).

B1: His-caspase 11 (full length mouse caspase 11 with a TEV cleavable N-terminal 6xHis tag) (enzyme, UniProt P70343 1-373, looked up)
chain: MAENKHPDKPLKVLEQLGKEVLTEYLEKLVQSNVLKLKEEDKQKFNNAERSDKRWVFVDAMKKKHSKVGEMLLQTFFSVDPGSHHGEANLEMEEPEESLNTLKLCSPEEFTRLCREKTQEIYPIKEANGRTRKALIICNTEFKHLSLRYGANFDIIGMKGLLEDLGYDVVVKEELTAEGMESEMKDFAALSEHQTSDSTFLVLMSHGTLHGICGTMHSEKTPDVLQYDTIYQIFNNCHCPGLRDKPKVIIVQACRGGNSGEMWIRESSKPQLCRGVDLPRNMEADAVKLSHVEKDFIAFYSTTPHHLSYRDKTGGSYFITRLISCFRKHACSCHLFDIFLKVQQSFEKASIHSQMPTIDRATLTRYFYLFPGN
notes: Monomer or oligomer fractions from size exclusion chromatography were incubated with oxPAPC and run on Superdex 200; not shown: TEV cleavable N-terminal 6xHis tag from the pFastBac HT A vector
binding result: binds
